Experimental data from patent US20230295336A1 (INHIBRX, published 2023).

Columns and labels:
[1] = biological target: T1, CD3 on the surface of primary T cells (human, UniProt P07766 23-207); assay: flow cytometry on isolated primary human T cells
T1 construct: whole, on cells; CD3 is a multimeric complex (ε, γ, δ, ζ chains) with the TCR; In the reporter assays CD3 stood on Jurkat cells; also called CD3ε
Method: (§1) Binding of exemplary multispecific constructs containing an antigen-binding domain directed against B7H3 were assessed for binding to B7H3 positive A375 tumor cells or primary T-cells. The constructs were generated containing antigen-binding domain(s) that were either sdAbs or a FABs, and that were positioned either only N-terminal to the Fc or both N-terminal to the Fc and C-terminal to the anti-CD3 binding domain (see FIGS. 3A and 3C and Table E1.1). Among the various formats of constructs tested included: sdAb-Fc-dsFV-sdAb (cx3072, cx5952) sdAb-Fc-FV (cx6079), sdAb-Fc-dsFV (cs6080, cx6081), MAB-FV (cx5067) and MAB-dsFV (cx6083, cx6084), where the FV represents the anti-CD3 binding domain composed of VH and VL domain pairs and “ds” notes disulfide stabilized via an engineered interdomain disulfide bond.
(§2) Binding was assessed as described above via flow cytometry using a fluorophore-conjugated anti-human Fc secondary antibody. cx3072 bound to A375 cells with high affinity (FIG. 6A) but not to isolated T-cells (FIG. 6B). […] The B7H3-targeting sdAb containing constructs (cx5952, cx6079, cx6080, and cx6081) bound to B7H3 positive cells with similar affinities (depicted in FIG. 6E), with cx5952 displaying higher maximal binding. cx6079, cx6080 and cx6081 contain two identical B7H3-targeting sdAbs, whereas cx5952, and cx3072 contain two distinct B7H3-targeting sdAb that bind different epitopes. The MAB-FV, cx5067, contains two identical B7H3-targeting FAB domains.

B7H3 (CD276) = biological target: T2, B7H3 (CD276) (human, UniProt Q5ZPR3 29-534); assay: flow cytometry on A375 cells, anti-human Fc secondary
T2 construct: whole, on cells
T2 sequence (looked up): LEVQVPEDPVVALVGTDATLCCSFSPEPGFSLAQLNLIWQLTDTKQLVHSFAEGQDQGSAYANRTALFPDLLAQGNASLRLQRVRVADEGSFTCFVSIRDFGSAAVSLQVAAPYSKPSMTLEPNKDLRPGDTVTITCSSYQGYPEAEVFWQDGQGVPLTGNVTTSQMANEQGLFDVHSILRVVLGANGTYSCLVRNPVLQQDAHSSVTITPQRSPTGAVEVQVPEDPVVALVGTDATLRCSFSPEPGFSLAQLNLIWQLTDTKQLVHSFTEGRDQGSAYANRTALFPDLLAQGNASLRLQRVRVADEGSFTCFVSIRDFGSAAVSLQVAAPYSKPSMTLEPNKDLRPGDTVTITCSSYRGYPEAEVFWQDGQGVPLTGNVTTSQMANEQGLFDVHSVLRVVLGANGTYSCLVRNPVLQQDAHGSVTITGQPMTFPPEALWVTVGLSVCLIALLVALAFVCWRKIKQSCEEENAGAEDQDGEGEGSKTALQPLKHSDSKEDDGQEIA
Method: as §1, §2

T1 sequence (P07766 23-207): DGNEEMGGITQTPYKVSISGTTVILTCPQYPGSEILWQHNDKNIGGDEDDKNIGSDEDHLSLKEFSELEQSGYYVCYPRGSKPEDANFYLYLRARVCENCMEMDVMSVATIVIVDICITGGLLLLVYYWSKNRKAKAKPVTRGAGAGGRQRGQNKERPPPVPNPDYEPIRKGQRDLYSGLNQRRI

B1: cx5067 (bispecific antibody)
chain 1: EVQLVESGGGLVQPGGSLRLSCAASGFTFSSFGMHWVRQAPGKGLEWVAYISSDSSAIYYADTVKGRFTISRDNAKNSLYLQMNSLRDEDTAVYYCGRGRENIYYGSRLDYWGQGTTVTVSSASTKGPSVFPLAPSSKSTSGGTAALGCLVKDYFPEPVTVSWNSGALTSGVHTFPAVLQSSGLYSLSSVVTVPSSSLGTQTYICNVNHKPSNTKVDKKVEPKSCDKTHTCPPCPAPPVAGPSVFLFPPKPKDTLMISRTPEVTCVVVDVKHEDPEVKFNWYVDGVEVHNAKTKPREEEYNSTYRVVSVLTVLHQDWLNGKEYKCKVSNKALPAPIEKTISKAKGQPREPQVYTLPPSREEMTKNQVSLTCDVSGFYPSDIAVEWESDGQPENNYKTTPPVLDSDGSFFLYSKLTVDKSRWEQGDVFSCSVMHEALHNHYTQKSLSLSPGKGGGGSGGGGSGGGGSEVQLVESGGGLVQPGGSLRLSCAASGFTFSTYAMNWVRQAPGKGLEWVGRIRSKYNNYATYYADSVKGRFTISRDDSKNTLYLQMNSLRAEDTAVYYCVRHGNFGDSYVSWFAYWGQGTLVTVSS
chain 2: EVQLVESGGGLVQPGGSLRLSCAASGFTFSSFGMHWVRQAPGKGLEWVAYISSDSSAIYYADTVKGRFTISRDNAKNSLYLQMNSLRDEDTAVYYCGRGRENIYYGSRLDYWGQGTTVTVSSASTKGPSVFPLAPSSKSTSGGTAALGCLVKDYFPEPVTVSWNSGALTSGVHTFPAVLQSSGLYSLSSVVTVPSSSLGTQTYICNVNHKPSNTKVDKKVEPKSCDKTHTCPPCPAPPVAGPSVFLFPPKPKDTLMISRTPEVTCVVVDVKHEDPEVKFNWYVDGVEVHNAKTKPREEQYNSTYRVVSVLTVLHQDWLNGKEYKCKVSNKALPAPIEKTISKAKGQPREPQVYTLPPSREQMTKNQVKLTCLVKGFYPSDIAVEWESNGQPENNYKTTPPVLDSDGSFFLYSKLTVDKSRWQQGNVFSCSVMHEALHNHYTQKSLSLSPGKGGGGSGGGGSGGGGSQAVVTQEPSLTVSPGGTVTLTCGSSTGAVTTSNYANWVQQKPGKSPRGLIGGTNKRAPGVPARFSGSLLGGKAALTISGAQPEDEADYYCALWYSNHWVFGGGTKLTVL
light: DIQLTQSPSFLSASVGDRVTITCKASQNVDTNVAWYQQKPGKAPKALIYSASYRYSGVPSRFSGSGSGTDFTLTISSLQPEDFATYYCQQYNNYPFTFGQGTKLEIKRTVAAPSVFIFPPSDEQLKSGTASVVCLLNNFYPREAKVQWKVDNALQSGNSQESVTEQDSKDSTYSLSSTLTLSKADYEKHKVYACEVTHQGLSSPVTKSFNRGEC
notes: Three polypeptides; two identical B7H3 Fab domains; anti-CD3 Fv not disulfide-stabilized; also called MAB-FV; B7H3-targeted constrained CD3 engaging construct (Fab format)
- binding result [1]: no binding
- binding result (B7H3 (CD276)): binds

B2: cx6083 (bispecific antibody)
chain 1: EVQLVESGGGLVQPGGSLRLSCAASGFTFSSFGMHWVRQAPGKGLEWVAYISSDSSAIYYADTVKGRFTISRDNAKNSLYLQMNSLRDEDTAVYYCGRGRENIYYGSRLDYWGQGTTVTVSSASTKGPSVFPLAPSSKSTSGGTAALGCLVKDYFPEPVTVSWNSGALTSGVHTFPAVLQSSGLYSLSSVVTVPSSSLGTQTYICNVNHKPSNTKVDKKVEPKSCDKTHTCPPCPAPPVAGPSVFLFPPKPKDTLMISRTPEVTCVVVDVKHEDPEVKFNWYVDGVEVHNAKTKPREEEYNSTYRVVSVLTVLHQDWLNGKEYKCKVSNKALPAPIEKTISKAKGQPREPQVYTLPPSREEMTKNQVSLTCDVSGFYPSDIAVEWESDGQPENNYKTTPPVLDSDGSFFLYSKLTVDKSRWEQGDVFSCSVMHEALHNHYTQKSLSLSPGKGGGGSGGGGSGGGGSEVQLVESGGGLVQPGGSLRLSCAASGFTFSTYAMNWVRQAPGKCLEWVGRIRSKYNNYATYYADSVKGRFTISRDDSKNTLYLQMNSLRAEDTAVYYCVRHGNFGDSYVSWFAYWGQGTLVTVSS
chain 2: EVQLVESGGGLVQPGGSLRLSCAASGFTFSSFGMHWVRQAPGKGLEWVAYISSDSSAIYYADTVKGRFTISRDNAKNSLYLQMNSLRDEDTAVYYCGRGRENIYYGSRLDYWGQGTTVTVSSASTKGPSVFPLAPSSKSTSGGTAALGCLVKDYFPEPVTVSWNSGALTSGVHTFPAVLQSSGLYSLSSVVTVPSSSLGTQTYICNVNHKPSNTKVDKKVEPKSCDKTHTCPPCPAPPVAGPSVFLFPPKPKDTLMISRTPEVTCVVVDVKHEDPEVKFNWYVDGVEVHNAKTKPREEQYNSTYRVVSVLTVLHQDWLNGKEYKCKVSNKALPAPIEKTISKAKGQPREPQVYTLPPSREQMTKNQVKLTCLVKGFYPSDIAVEWESNGQPENNYKTTPPVLDSDGSFFLYSKLTVDKSRWQQGNVFSCSVMHEALHNHYTQKSLSLSPGKGGGGSGGGGSGGGGSQAVVTQEPSLTVSPGGTVTLTCGSSTGAVTTSNYANWVQQKPGKSPRGLIGGTNKRAPGVPARFSGSLLGGKAALTISGAQPEDEADYYCALWYSNHWVFGCGTKLTVL
light: DIQLTQSPSFLSASVGDRVTITCKASQNVDTNVAWYQQKPGKAPKALIYSASYRYSGVPSRFSGSGSGTDFTLTISSLQPEDFATYYCQQYNNYPFTFGQGTKLEIKRTVAAPSVFIFPPSDEQLKSGTASVVCLLNNFYPREAKVQWKVDNALQSGNSQESVTEQDSKDSTYSLSSTLTLSKADYEKHKVYACEVTHQGLSSPVTKSFNRGEC
notes: Three polypeptides; B7H3 Fab on both Fc chains; anti-CD3 Fv disulfide-stabilized (VH G44C / VL G100C); also called MAB-dsFV; B7H3-targeted constrained CD3 engaging construct (Fab format)
- binding result [1]: no binding
- binding result (B7H3 (CD276)): binds

B3: cx6081 (bispecific antibody)
chain 1: EVQLVESGGGEVQPGGSLRLSCAASGFSFSSNVMMWVRQAPGKGLEWVSTIYSSGTGTFYAESVKGRFTISRDNAKNTLYLQMSSLRPEDTAVYYCATSGPVRGWGPRSQGTLVTVKPPGGGGDKTHTCPPCPAPPVAGPSVFLFPPKPKDTLMISRTPEVTCVVVDVKHEDPEVKFNWYVDGVEVHNAKTKPREEEYNSTYRVVSVLTVLHQDWLNGKEYKCKVSNKALPAPIEKTISKAKGQPREPQVYTLPPSREEMTKNQVSLTCDVSGFYPSDIAVEWESDGQPENNYKTTPPVLDSDGSFFLYSKLTVDKSRWEQGDVFSCSVMHEALHNHYTQKSLSLSPGKGGGGSGGGGSGGGGSEVQLVESGGGLVQPGGSLRLSCAASGFTFNTYAMNWVRQAPGKCLEWVARIRSKYNNYATYYADSVKGRFTISRDDAKNTLYLQMSSLRAEDTAVYYCVRHGNFGNSYVSWFAYWGQGTLVTVKP
chain 2: EVQLVESGGGEVQPGGSLRLSCAASGFSFSSNVMMWVRQAPGKGLEWVSTIYSSGTGTFYAESVKGRFTISRDNAKNTLYLQMSSLRPEDTAVYYCATSGPVRGWGPRSQGTLVTVKPPGGGGDKTHTCPPCPAPPVAGPSVFLFPPKPKDTLMISRTPEVTCVVVDVKHEDPEVKFNWYVDGVEVHNAKTKPREEQYNSTYRVVSVLTVLHQDWLNGKEYKCKVSNKALPAPIEKTISKAKGQPREPQVYTLPPSREQMTKNQVKLTCLVKGFYPSDIAVEWESNGQPENNYKTTPPVLDSDGSFFLYSKLTVDKSRWQQGNVFSCSVMHEALHNHYTQKSLSLSPGKGGGGSGGGGSGGGGSQAVVTQEPSLTVSPGGTVTLTCGSSTGAVTTSNYANWVQQKPGQAFRGLIGGTNKRAPGVPARFSGSLLGGKAALTISGAQPEDEADYYCALWYSNHWVFGCGTKLEIK
notes: Heterodimer of chain 1 and chain 2; anti-CD3 Fv disulfide-stabilized (VH G44C / VL G100C); two identical B7H3 sdAbs, both N-terminal to the Fc; also called cs6081; B7H3-targeting constrained CD3 engaging construct
- binding result [1]: no binding
- binding result (B7H3 (CD276)): binds
